Target: fTHP-15 fluorogenic triple-helical peptide substrate

Substance | Km of triple-helical peptidase activity (hydrolysis of fTHP-15), 27 °C, pH 7.5
MT1-MMP catalytic domain, wild type (enzyme) | 8.9 µM
MT1-MMP ectodomain R330A (enzyme) | 0.98 µM
MT1-MMP ectodomain R343A (enzyme) | 4.3 µM
MT1-MMP ectodomain R345A (enzyme) | 1.7 µM
MT1-MMP soluble ectodomain, wild type (C127S-substituted) (enzyme) | 0.82 µM

Now from value to substance:

Km of triple-helical peptidase activity (hydrolysis of fTHP-15), 27 °C, pH 7.5 | Substance
1.6 µM | MT1-MMP ectodomain E392A (enzyme)
1.7 µM | MT1-MMP ectodomain F360G (enzyme)
0.79 µM | MT1-MMP ectodomain N347A (enzyme)
